CN102731650A (SICHUAN HUIYU PHARMACEUTICAL CO LTD, dated 2012)

Target: T1, SP62 (biotin-labelled peptide containing the 2F5 epitope sequence) (HIV-1, biotin-labelled (position not given))
T1 construct: The results speak of the 'MPER peptide' or 'peptide'; also called 2F5多肽; gp41 MPER多肽
T1 peptide: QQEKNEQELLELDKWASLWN
Experiment: ELISA

B1: A2 (light-chain shuffled clone, Fab on phage) (Fab, V domains shown)
VH: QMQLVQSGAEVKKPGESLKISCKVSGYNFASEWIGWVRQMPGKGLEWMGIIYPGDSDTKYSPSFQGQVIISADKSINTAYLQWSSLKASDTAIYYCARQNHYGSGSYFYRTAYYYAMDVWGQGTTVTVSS
VL: DIQLTQSPSSLSASLGDKVTITCRASQHIKKYLNWYQQKPGKAPKLLIYGALNLQSGVPSRFSGRGSGTDFTLTISSLQPEDFATYYCQQSYSTPFTFGPGTKVDIKR
- binding result: binds
